B1: G182A: protease variant of SEQ ID NO 3 (protein, listed as Bacillus sp.)
chain: AVPSTQTPWGIKSIYNDQSITKTTGGSGIKVAVLDTGVYTSHLDLAGSAEQCKDFTQSNPLVDGSCTDRQGHGTHVAGTVLAHGGSNGQGVYGVAPQAKLWAYKVLGDNGSGYSDDIAAAIRHVADEASRTGSKVVINMSLGSSAKDSLIASAVDYAYGKGVLIVAAAGNSGSGSNTIGFPAGLVNAVAVAALENVQQNGTYRVADFSSRGNPATAGDYIIQERDIEVSAPGASVESTWYTGGYNTISGTSMATPHVAGLAAKIWSANTSLSHSQLRTELQNRAKVYDIKGGIGAGTGDDYASGFGYPRVK
B2: L184Y: protease variant of SEQ ID NO 3 (protein, listed as Bacillus sp.)
chain: AVPSTQTPWGIKSIYNDQSITKTTGGSGIKVAVLDTGVYTSHLDLAGSAEQCKDFTQSNPLVDGSCTDRQGHGTHVAGTVLAHGGSNGQGVYGVAPQAKLWAYKVLGDNGSGYSDDIAAAIRHVADEASRTGSKVVINMSLGSSAKDSLIASAVDYAYGKGVLIVAAAGNSGSGSNTIGFPGGYVNAVAVAALENVQQNGTYRVADFSSRGNPATAGDYIIQERDIEVSAPGASVESTWYTGGYNTISGTSMATPHVAGLAAKIWSANTSLSHSQLRTELQNRAKVYDIKGGIGAGTGDDYASGFGYPRVK
B3: K146A + S173P + S175P + F180Y: protease variant of SEQ ID NO 3 (protein, listed as Bacillus sp.)
chain: AVPSTQTPWGIKSIYNDQSITKTTGGSGIKVAVLDTGVYTSHLDLAGSAEQCKDFTQSNPLVDGSCTDRQGHGTHVAGTVLAHGGSNGQGVYGVAPQAKLWAYKVLGDNGSGYSDDIAAAIRHVADEASRTGSKVVINMSLGSSAADSLIASAVDYAYGKGVLIVAAAGNSGPGPNTIGYPGGLVNAVAVAALENVQQNGTYRVADFSSRGNPATAGDYIIQERDIEVSAPGASVESTWYTGGYNTISGTSMATPHVAGLAAKIWSANTSLSHSQLRTELQNRAKVYDIKGGIGAGTGDDYASGFGYPRVK
B4: K146W + S173P + S175P + F180Y: protease variant of SEQ ID NO 3 (protein, listed as Bacillus sp.)
chain: AVPSTQTPWGIKSIYNDQSITKTTGGSGIKVAVLDTGVYTSHLDLAGSAEQCKDFTQSNPLVDGSCTDRQGHGTHVAGTVLAHGGSNGQGVYGVAPQAKLWAYKVLGDNGSGYSDDIAAAIRHVADEASRTGSKVVINMSLGSSAWDSLIASAVDYAYGKGVLIVAAAGNSGPGPNTIGYPGGLVNAVAVAALENVQQNGTYRVADFSSRGNPATAGDYIIQERDIEVSAPGASVESTWYTGGYNTISGTSMATPHVAGLAAKIWSANTSLSHSQLRTELQNRAKVYDIKGGIGAGTGDDYASGFGYPRVK
B5: K146T + S173P + S175P + F180Y: protease variant of SEQ ID NO 3 (protein, listed as Bacillus sp.)
chain: AVPSTQTPWGIKSIYNDQSITKTTGGSGIKVAVLDTGVYTSHLDLAGSAEQCKDFTQSNPLVDGSCTDRQGHGTHVAGTVLAHGGSNGQGVYGVAPQAKLWAYKVLGDNGSGYSDDIAAAIRHVADEASRTGSKVVINMSLGSSATDSLIASAVDYAYGKGVLIVAAAGNSGPGPNTIGYPGGLVNAVAVAALENVQQNGTYRVADFSSRGNPATAGDYIIQERDIEVSAPGASVESTWYTGGYNTISGTSMATPHVAGLAAKIWSANTSLSHSQLRTELQNRAKVYDIKGGIGAGTGDDYASGFGYPRVK
B6: S114F + S173P + S175P + F180Y: protease variant of SEQ ID NO 3 (protein, listed as Bacillus sp.)
chain: AVPSTQTPWGIKSIYNDQSITKTTGGSGIKVAVLDTGVYTSHLDLAGSAEQCKDFTQSNPLVDGSCTDRQGHGTHVAGTVLAHGGSNGQGVYGVAPQAKLWAYKVLGDNGSGYFDDIAAAIRHVADEASRTGSKVVINMSLGSSAKDSLIASAVDYAYGKGVLIVAAAGNSGPGPNTIGYPGGLVNAVAVAALENVQQNGTYRVADFSSRGNPATAGDYIIQERDIEVSAPGASVESTWYTGGYNTISGTSMATPHVAGLAAKIWSANTSLSHSQLRTELQNRAKVYDIKGGIGAGTGDDYASGFGYPRVK
B7: K146S + S173P + S175P + F180Y: protease variant of SEQ ID NO 3 (protein, listed as Bacillus sp.)
chain: AVPSTQTPWGIKSIYNDQSITKTTGGSGIKVAVLDTGVYTSHLDLAGSAEQCKDFTQSNPLVDGSCTDRQGHGTHVAGTVLAHGGSNGQGVYGVAPQAKLWAYKVLGDNGSGYSDDIAAAIRHVADEASRTGSKVVINMSLGSSASDSLIASAVDYAYGKGVLIVAAAGNSGPGPNTIGYPGGLVNAVAVAALENVQQNGTYRVADFSSRGNPATAGDYIIQERDIEVSAPGASVESTWYTGGYNTISGTSMATPHVAGLAAKIWSANTSLSHSQLRTELQNRAKVYDIKGGIGAGTGDDYASGFGYPRVK
B8: Q70A + S173P + S175P + F180Y: protease variant of SEQ ID NO 3 (protein, listed as Bacillus sp.)
chain: AVPSTQTPWGIKSIYNDQSITKTTGGSGIKVAVLDTGVYTSHLDLAGSAEQCKDFTQSNPLVDGSCTDRAGHGTHVAGTVLAHGGSNGQGVYGVAPQAKLWAYKVLGDNGSGYSDDIAAAIRHVADEASRTGSKVVINMSLGSSAKDSLIASAVDYAYGKGVLIVAAAGNSGPGPNTIGYPGGLVNAVAVAALENVQQNGTYRVADFSSRGNPATAGDYIIQERDIEVSAPGASVESTWYTGGYNTISGTSMATPHVAGLAAKIWSANTSLSHSQLRTELQNRAKVYDIKGGIGAGTGDDYASGFGYPRVK
B9: S114A + S173P + S175P + F180Y: protease variant of SEQ ID NO 3 (protein, listed as Bacillus sp.)
chain: AVPSTQTPWGIKSIYNDQSITKTTGGSGIKVAVLDTGVYTSHLDLAGSAEQCKDFTQSNPLVDGSCTDRQGHGTHVAGTVLAHGGSNGQGVYGVAPQAKLWAYKVLGDNGSGYADDIAAAIRHVADEASRTGSKVVINMSLGSSAKDSLIASAVDYAYGKGVLIVAAAGNSGPGPNTIGYPGGLVNAVAVAALENVQQNGTYRVADFSSRGNPATAGDYIIQERDIEVSAPGASVESTWYTGGYNTISGTSMATPHVAGLAAKIWSANTSLSHSQLRTELQNRAKVYDIKGGIGAGTGDDYASGFGYPRVK
B10: S114Q + S173P + S175P + F180Y: protease variant of SEQ ID NO 3 (protein, listed as Bacillus sp.)
chain: AVPSTQTPWGIKSIYNDQSITKTTGGSGIKVAVLDTGVYTSHLDLAGSAEQCKDFTQSNPLVDGSCTDRQGHGTHVAGTVLAHGGSNGQGVYGVAPQAKLWAYKVLGDNGSGYQDDIAAAIRHVADEASRTGSKVVINMSLGSSAKDSLIASAVDYAYGKGVLIVAAAGNSGPGPNTIGYPGGLVNAVAVAALENVQQNGTYRVADFSSRGNPATAGDYIIQERDIEVSAPGASVESTWYTGGYNTISGTSMATPHVAGLAAKIWSANTSLSHSQLRTELQNRAKVYDIKGGIGAGTGDDYASGFGYPRVK
B11: K146F + S173P + S175P + F180Y: protease variant of SEQ ID NO 3 (protein, listed as Bacillus sp.)
chain: AVPSTQTPWGIKSIYNDQSITKTTGGSGIKVAVLDTGVYTSHLDLAGSAEQCKDFTQSNPLVDGSCTDRQGHGTHVAGTVLAHGGSNGQGVYGVAPQAKLWAYKVLGDNGSGYSDDIAAAIRHVADEASRTGSKVVINMSLGSSAFDSLIASAVDYAYGKGVLIVAAAGNSGPGPNTIGYPGGLVNAVAVAALENVQQNGTYRVADFSSRGNPATAGDYIIQERDIEVSAPGASVESTWYTGGYNTISGTSMATPHVAGLAAKIWSANTSLSHSQLRTELQNRAKVYDIKGGIGAGTGDDYASGFGYPRVK
B12: K146N + S173P + S175P + F180Y: protease variant of SEQ ID NO 3 (protein, listed as Bacillus sp.)
chain: AVPSTQTPWGIKSIYNDQSITKTTGGSGIKVAVLDTGVYTSHLDLAGSAEQCKDFTQSNPLVDGSCTDRQGHGTHVAGTVLAHGGSNGQGVYGVAPQAKLWAYKVLGDNGSGYSDDIAAAIRHVADEASRTGSKVVINMSLGSSANDSLIASAVDYAYGKGVLIVAAAGNSGPGPNTIGYPGGLVNAVAVAALENVQQNGTYRVADFSSRGNPATAGDYIIQERDIEVSAPGASVESTWYTGGYNTISGTSMATPHVAGLAAKIWSANTSLSHSQLRTELQNRAKVYDIKGGIGAGTGDDYASGFGYPRVK

The nature of one experiment: Inhibitor binding assay of SEQ ID NO 3 variants, Inhibitor 1, in Model B detergent. In kind it is biochemical. Particulars: in Model B relative to SEQ ID NO 3; relative Ki, IF>1.0 = lower Ki. The source says: Where E is the protease, I is the inhibitor and EI is the protease-inhibitor complex. […] The concentration of enzyme-inhibitor in the detergent solution is then given by:
where Etot is the total protease concentration ([Etot]=[E]+[EI]), Itot is the total inhibitor concentration ([Itot]=[I]+[EI]), and Ki is the equilibrium binding constant for the reaction. The measured slopes V are given by:
where V0 is the slope without inhibitor added. To calculate apparent binding constant Ki least square fitting of measured slopes at various inhibitor concentrations to this equation is performed with Ki and V0 as variables.
Purified protease variants are pre-diluted to approximately 0.2 mg/ml in dilution buffer. The experimental conditions are described in Table 5. 40 μl diluted protease is then mixed with 40 μl inhibitor solution Inhibitor 1: (Cbz-Gly-Ala-NHCH(CH2C6H4pOH)C(OH)(SO3Na)—H, wherein Cbz is benzyloxycarbonyl) or 40 μl Inhibitor 2: (4-FPBA) solution in the well of a 96 well microtiter plate (Nunc F 96-MTP). […] After 10 min mixing of protease and inhibitor at room temperature, 30 μl of the mixture is transferred to a microtiter plate (Nunc U96 PP 0.5 ml) with 270 μl Model B detergent (described in Table 1) in the wells resulting in inhibitor 1 concentrations of 0-30 μM and inhibitor 2 concentrations of 0-6000 μM. Protease, inhibitor and detergent is mixed for 1 hour using magnetic bars for 1 hour at room temperature to reach equilibrium. Then 20 μl is transferred to a microtiter plate (Nunc F 96-MTP). 100 μl substrate solution is added and after 5 sec mixing absorbance at 405 nm is measured every 20 sec for 5 min on a SpectraMax Plus reader. Slope from linear regression of initial increase in absorbance at 405 nm is used for calculation of apparent binding constants. Ki values were calculated according to the “Calculation of Ki” method described in “Materials and Methods”
Having the Ki for each variant, it is possible to calculate the effect of a single mutation, if data are available for at least two variants that differ only by that mutation. In this case, the relative Ki for the mutation (Improvement Factor, or IF) is calculated:
A lower Ki is desirable, as a satisfactory inhibition can be obtained at a lower inhibitor concentration, so beneficial mutations have an IF>1.0
Turning to B1, the “inhibitor 1 binding constant improvement factors (IF)” value worked out at 1.86.

For B2, the “inhibitor 1 binding constant improvement factors (IF)” value turned out to be 4.47.

Still in this experiment, the particulars now being: in Model B relative to SEQ ID NO 3 comprising S173P + S175P + F180Y; relative Ki, IF>1.0 = lower Ki.
For the molecule B3, the “inhibitor 1 binding constant improvement factors (IF)” value turned out to be 3.72.

Regarding B4, the “inhibitor 1 binding constant improvement factors (IF)” value came out at 5.47.

In the case of B5, the “inhibitor 1 binding constant improvement factors (IF)” value came out at 15.91.

As to B6, the “inhibitor 1 binding constant improvement factors (IF)” value is recorded as 1.41.

In the case of B7, the “inhibitor 1 binding constant improvement factors (IF)” value is given as 1.13.

As to B8, the “inhibitor 1 binding constant improvement factors (IF)” value stood at 4.13.

Regarding B9, the “inhibitor 1 binding constant improvement factors (IF)” value was 3.33.

On to B10, for which the “inhibitor 1 binding constant improvement factors (IF)” value was 2.03.

B11: the “inhibitor 1 binding constant improvement factors (IF)” value amounted to 5.17.

Turning to B12, the “inhibitor 1 binding constant improvement factors (IF)” value stood at 1.36.

Source of the values: patent US20170342349A1, “STABILIZED ENZYME COMPOSITIONS” (NOVOZYMES A/S, priority 2014, published 2017).
